The values below are quoted from earlier work in US20260265800A1, “NEW FUCOSYLTRANSFERASES FOR IN VIVO SYNTHESIS OF LNFP-III” (DSM IP Assets B.V., priority 2022, published 2026).

First the molecules themselves.
B1: PmglB_54UTR: promoter sequence, SEQ ID NO: 18 (nucleic acid)
DNA: TGCGTCGCCATTCTGTCGCAACACGCCAGAATGCGGCGGCGATCACTAACTCAACAAATCAGGCGATGTAACCGCTTTCAATCTGTGAGTGATTTCACAGTATCTTAACAATGTGATAGCTATGATTGCACCGTGCCTACAAGCATCGTGGAGGTCCGTGACTTTCACGCATACAACAAACATTAACAAAAACCGGAGATACC
B2: PglpF_SD7: promoter sequence, SEQ ID NO: 34 (nucleic acid)
DNA: GCGGCACGCCTTGCAGATTACGGTTTGCCACACTTTTCATCCTTCTCCTGGTGACATAATCCACATCAATCGAAAATGTTAATAAATTTGTTGCGCGAATGATCTAACAAACATGCATCATGTACAATCAGATGGAATAAATGGCGCGATAACGCTCATTTTATGACGAGGCACACACATTTTAAGTTCGATATTTCTCGTTTTTGCTCGTTAACGATAAGTTTACAGCATGCCTACAAGCATCGTGGAGGTCCGTGACTTTCACGCATACAACAAACATTAACCAAGAGCAAAACAGCT
B3: PglpF_SD3: promoter sequence, SEQ ID NO: 38 (nucleic acid)
DNA: B2 DNA with G290A
B4: PglpF_SD1: promoter sequence, SEQ ID NO: 39 (nucleic acid)
DNA: B2 DNA with G288A, A289T, G290T, A292G
B5: PmglB_16UTR: promoter sequence, SEQ ID NO: 32 (nucleic acid)
DNA: TGCGTCGCCATTCTGTCGCAACACGCCAGAATGCGGCGGCGATCACTAACTCAACAAATCAGGCGATGTAACCGCTTTCAATCTGTGAGTGATTTCACAGTATCTTAACAATGTGATAGCTATGATTGCACCGTTTTAACGTTGTAACCCGTATGTAACAGTGAATAATCACTTTTGCCGAGGTAACAGCGTCATAACAACAATTAAAGCCGTTTTCTGGAGCGTTACCGGGCATGGAAGAACGAATTTTAAAAAGTGAGCTTCGGCGTTCAGTAACACTTCATTAACTCTACTGCCCCGCCGAGCATTTATCTCAAGCACTACCCTGCATAAGCAAGGAGGAAACAGCT
B6: Plac_70UTR: promoter sequence, SEQ ID NO: 19 (nucleic acid)
DNA: TGTGAGTTAGCTCACTCATTAGGCACCCCAGGCTTTACACTTTATGCTTCCGGCTCGTATGTTGTGTGGAATGCCTACAAGCATCGTGGAGGTCCGTGACTTTCACGCATACAACAAACATTAACCAAGGAGGAAACAGCT
B7: PglpF_SD8: promoter sequence, SEQ ID NO: 31 (nucleic acid)
DNA: ATGCGCAAATGCGGCACGCCTTGCAGATTACGGTTTGCCACACTTTTCATCCTTCTCCTGGTGACATAATCCACATCAATCGAAAATGTTAATAAATTTGTTGCGCGAATGATCTAACAAACATGCATCATGTACAATCAGATGGAATAAATGGCGCGATAACGCTCATTTTATGACGAGGCACACACATTTTAAGTTCGATATTTCTCGTTTTTGCTCGTTAACGATAAGTTTACAGCATGCCTACAAGCATCGTGGAGGTCCGTGACTTTCACGCATACAACAAACATTAACCAAGAGAAAAACAGCT
B8: PglpF_SD6: promoter sequence, SEQ ID NO: 35 (nucleic acid)
DNA: B7 DNA with A301C, A302T
B9: PglpF_SD9: promoter sequence, SEQ ID NO: 33 (nucleic acid)
DNA: B7 DNA with G298A, A299G
B10: PglpA_16UTR: promoter sequence, SEQ ID NO: 36 (nucleic acid)
DNA: GAAAACATTCATAAATTAAATGTGAATTGCCGCACACATTATTAAATAAGATTTACAAAATGTTCAAAATGACGCATGAAATCACGTTTCACTTTCGAATTATGAGCGAATATGCGCGATGCCTACAAGCATCGTGGAGGTCCGTGACTTTCACGCATACAACAAACATTAACCAAGGAGGAAACAGCT
B11: PmglB_70UTR_SD8: promoter sequence, SEQ ID NO: 16 (nucleic acid)
DNA: TGCGTCGCCATTCTGTCGCAACACGCCAGAATGCGGCGGCGATCACTAACTCAACAAATCAGGCGATGTAACCGCTTTCAATCTGTGAGTGATTTCACAGTATCTTAACAATGTGATAGCTATGATTGCACCGTGCCTACAAGCATCGTGGAGGTCCGTGACTTTCACGCATACAACAAACATTAACCAAGAGAAAAACAGCT
B12: PmglB_70UTR_SD10: promoter sequence, SEQ ID NO: 17 (nucleic acid)
DNA: B11 DNA with G191C, A192T, A195G

Changes are numbered by the printed parent chain.

The first data set has as its system β-galactosidase activity. Particulars: LacZ assay, PglpF as positive reference; a range indicates results from multiple assays; cited from earlier work.
In the case of B1, the “% Activity relative to PglpF” value is 197%.

As for B2, the “% Activity relative to PglpF” value is 47-57%.

As for B3, the “% Activity relative to PglpF” value was 9%.

As for B4, the “% Activity relative to PglpF” value is reported as 5%.

Take B5: the “% Activity relative to PglpF” value is reported as 78-171%.

Take B6: the “% Activity relative to PglpF” value is 182-220%.

B7: the “% Activity relative to PglpF” value was 81-82%.

For the molecule B8, the “% Activity relative to PglpF” value is given as 46-47%.

For the molecule B9, the “% Activity relative to PglpF” value was 73-93%.

For B10, the “% Activity relative to PglpF” value is 38-64%.

Turning to B11, the “% Activity relative to PglpF” value is 291%.

In the case of B12, the “% Activity relative to PglpF” value is given as 233-281%.

Staying with this data set, now noted: LacZ assay; cited from earlier work.
As to B1, the Strength entry was “high (A regulatory element with an activity above 10,000 MU is considered strong)”.

For the molecule B2, the Strength entry is given as “middle (what is in between has intermediate strength)”.

Turning to B3, the Strength result is “low (a regulatory element with an activity below 3,000 MU is considered weak)”.

On to B4, for which the Strength result is given as “low (a regulatory element with an activity below 3,000 MU is considered weak)”.

For B5, the Strength result was “high (A regulatory element with an activity above 10,000 MU is considered strong)”.

Turning to B6, the Strength result is “high (A regulatory element with an activity above 10,000 MU is considered strong)”.

In the case of B7, the Strength entry is “high (A regulatory element with an activity above 10,000 MU is considered strong)”.

With B8, the Strength entry was “middle (what is in between has intermediate strength)”.

For the molecule B9, the Strength entry is reported as “middle (what is in between has intermediate strength)”.

On to B10, for which the Strength result was “middle (what is in between has intermediate strength)”.

Turning to B11, the Strength result is reported as “high (A regulatory element with an activity above 10,000 MU is considered strong)”.

As for B12, the Strength entry was “high (A regulatory element with an activity above 10,000 MU is considered strong)”.
